From patent publication US20100129390A1, “DKK1 AS A UNIVERSAL TUMOR VACCINE FOR IMMUNOTHERAPY OF CANCERS” (priority 2007, published 2010)

Assays:
[1] = system: HLA-A*0201 transgenic mice; assay: In vivo immunogenicity of the peptides; conditions: 100 μg per mouse s.c., single immunization, splenocytes two weeks after
From the text: HLA-A*0201 transgenic (Tg[HLA-A2.1]) mice were purchased from Jackson Laboratory (Bar Harbor, Me.). Ishioka, G. Y., et al., Utilization of MHC Class I Transgenic Mice for Development of Minigene DNA Vaccines Encoding Multiple HLA-Restricted CTL Epitopes, J. Immunol. 1999, 162:3915-3925; Alexander, J., et al., A Decaepitope Polypeptide Primes for Multiple CD8+ IFN-Gamma and Th Lymphocyte Responses: Evaluation of Multiepitope Polypeptides as a Mode for Vaccine Delivery, J. Immunol. […] Mice were maintained at the animal facility and studies were approved by the Institutional Animal Care and Use Committees of The University of Texas M. D. Anderson Cancer Center.
For immunization, peptides were diluted in PBS at room temperature, mixed, and emulsified with an equal volume of incomplete Freund's adjuvant (Sigma). […]
To examine whether the peptides were able to immunize HLA-A*0201 transgenic mice, we injected 100 μg per mouse of peptides P20 (SEQ. ID NO. 1) and P66v (SEQ. ID. NO. 4), and Flu-matrix peptide as positive control s.c. to the mice (3 mice per peptide) according to established protocol. […] In vivo immunization successfully generated peptide-specific T cells, detected as specific IFN-γ-expressing (FIG. 2C) and peptide (P20 or P66v)-HLA-A*0201 tetramer^+ CD8^+ T cells (FIG. 2D).

[2] = system: DKK1 peptide-specific T-cell lines; assay: T-cell proliferation assay (3[H]-thymidine); format: cell-based, human; conditions: after 3 to 4 rounds of in vitro stimulation; P<0.01 compared with unpulsed DC
Method: DKK1-specific T cells were generated from PBMCs of HLA-A*0201^+ blood donors and myeloma patients by repeated stimulation of autologous T cells with DKK1 peptide-loaded mature DCs. Briefly, the non-adherent cells of PBMCs (2×10^6/mL; used as T-cell population) were cocultured in 50 mL tissue-culture flasks at 37° C. in 5% CO2 for 7-10 days in Aim-V medium supplemented with 10% pooled human serum (T-cell medium) with mature DCs (2×10^5/mL) preincubated with DKK1 peptides at a final concentration of 50 μg/mL at 37° C. for 2 h. After culture, T cells were collected and restimulated with DKK1 peptide-pulsed autologous mature DCs every week, and the cultures were fed every 5 days with fresh medium containing recombinant IL-2 (20 IU/mL), IL-7 (5 ng/mL) and IL-15 (5 ng/mL; all from R&D System). Induction of DKK1-specific T cells was monitored weekly using T-cell proliferation assay and DKK1 peptide-HLA-A*0201 tetramers (synthesized by MHC Tetramer Laboratory, Baylor College of Medicine, Houston, Tex.). […]
T cells (5×10^4/100 μL/well) were seeded into 96-well U-bottom tissue culture plates (Corning Incorporated, Corning, N.Y.) in T-cell medium. […] T-cell proliferation was measured after overnight incubation with ^3[H]-thymidine ([…]/0.037 MBq/well). Results are expressed as mean count per minute (CPM) of triplicate cultures.

[3] = target: T1, HLA-A*0201 molecules (Homo sapiens, UniProt P04439, D140Y/D185E/D98H/E176V/E277Q/G131W/G231S/I119V/I121R/I166T/I218V/L300P/L318F/N151K/N90K/P208A/P217A/Q86G/Q94H/R138H/R169H/T345S); assay: Peptide-T2 cell binding assay; conditions: HLA-A*0201 expression by flow cytometry (FIG. 2A)
T1 construct: endogenous in cells; host or cells: T2 cell line
Method: All peptides were synthesized in the Peptide Synthesis Facility at M. D. Anderson Cancer Center. Purity of synthetic peptides was confirmed to be >98% by reverse-phase high-performance liquid chromatography and mass spectrometry. Synthetic peptides were dissolved in dimethylsulfoxide (DMSO; Sigma, St. Louis, Mo.), and stored at −20° C. until use. Peptides binding to HLA-A*0201 molecules were measured using the T2 cell line according to a protocol previously described. Nijman, H. W., et al., Identification of Peptide Sequences that Potentially Trigger HLA-A2.1-Restricted Cytotoxic T Lymphocytes, Eur J. Immunol. 1993, 23:1215-1219. Briefly, T2 cells were incubated overnight with 3 μg/mL of β2-microglobulin (Sigma) and different concentrations of peptides, followed by wash and incubation with FITC-labeled anti-HLA-A*0201 mAb BB7.2 (BD PharMingen). After washing, cells were analyzed for the levels of HLA-A*0201 expression by flow cytometry. HLA-A*0201 expression was quantified according to the formula [(mean fluorescence with peptide−mean fluorescence without peptide)/mean fluorescence without peptide]×100.

[4] = target: T2, HLA-A*0201 molecules on T2 cells (human); assay: cell-based or functional assay
T2 construct: MHC class I molecule on T2 cells; also called HLA-A2.1

[5] = target: HLA-ABC; assay: cell-based or functional assay
[6] = target: T2, HLA-A*0201 molecules on T2 cells; assay: peptide-T2 cell binding assay, flow cytometry of surface HLA-A*0201 with mAb BB7.2
Method: All peptides were synthesized in the Peptide Synthesis Facility at M. D. Anderson Cancer Center. Purity of synthetic peptides was confirmed to be >98% by reverse-phase high-performance liquid chromatography and mass spectrometry. Synthetic peptides were dissolved in dimethylsulfoxide (DMSO; Sigma, St. Louis, Mo.), and stored at −20° C. until use. […] Nijman, H. W., et al., Identification of Peptide Sequences that Potentially Trigger HLA-A2.1-Restricted Cytotoxic T Lymphocytes, Eur J. Immunol. 1993, 23:1215-1219.

[7] = system: murine myeloma cell line tumor-A; assay: Vaccination and murine myeloma challenge; format: in vivo, Balb/c mice; conditions: vaccinated three times, s.c. challenge with tumor-A 1×10^6 cells/mouse
Method: Balb/c mice (4 per group) were s.c. vaccinated three times with murine DKK1 protein (50 ug/mouse) at a 30-day interval followed by s.c. challenge with murine myeloma cell line tumor-A (1×10^6 cells/mouse) after one weeks of third vaccination. Tumor burdens were measured twice every wk. Mice were euthanized when s.c. tumors reached 225 mm^2 or when mice became moribund. FIG. 18A is a graph depicting ELISA titers of anti-DKK1 antibody in the serum of immunized mice. Results shown in FIG. 18B are survival of mice that received DKK1 protein vaccinations and PBS control. Splenocytes were isolated from survival mice and pooled, and restimulated with irradiated tumor-A for 5 d. […]
Balb/c mice (5 per group) were s.c. vaccinated three times with three DKK1 peptides (100 ug/mouse) at a 14-day interval followed by s.c. challenge with murine myeloma cell line tumor-A (1×10^6 cells/mouse) after one week of third vaccination. Tumor burdens were measured twice every wk. […]
Balb/c mice (5 per group) were i.m. vaccinated three times with murine DKK1 DNA (50 ug/mouse) at a 14-day interval followed by s.c. challenge with murine myeloma cell line tumor-A (1×10^6 cells/mouse) after one weeks of third vaccination. Tumor burdens were measured twice every wk. […]

ALGGHPLLGV (listed as Homo Sapiens) [P20]
immunogenicity in immunizing the mice [1]: as immunogenic as the Flu-matrix peptide | T-cell line proliferation in response to autologous DCs pulsed with peptide [2]: proliferated in response to autologous DCs pulsed, but not unpulsed

ILYPGGNKV (listed as Homo Sapiens) [P66v]
immunogenicity in immunizing the mice [1]: as immunogenic as the Flu-matrix peptide | binding affinity [3]: much higher binding affinity than P66 | T-cell line proliferation in response to autologous DCs pulsed with peptide [2]: proliferated in response to autologous DCs pulsed, but not unpulsed

anti-HLA-A*0201 mAb BB7.2 (antibody)
inhibition of T cell-mediated cytotoxicity against peptide-pulsed T2 cells (51Cr release) [4]: 70 to 80 % inhibition

anti-HLA-ABC mAb W6/32 (antibody)
inhibition of T cell-mediated cytotoxicity against peptide-pulsed T2 cells (51Cr release) [5]: 70 to 80 % inhibition

ILYPGGNKV (Heteroclitic variant of P66) [DKK1 heteroclitic peptide P66v]
binding result [6]: binds

B1: DKK1 peptide P66 (peptide)
peptide: ILYPGGNKY
notes: Synthetic peptide; the end of the range follows from the length of 9 residues
binding result [6]: binds

B2: DKK1 peptide P20 (peptide)
peptide: ALGGHPLLGV
notes: Synthetic peptide, purity >98%; the end of the range follows from the length of 10 residues
binding result [6]: binds

YLGGHPLLGV (Heteroclitic variant of P20) [DKK1 heteroclitic peptide Py20]
binding result [6]: binds

B3: DKK1 Protein Vaccine: murine DKK1 protein, 50 ug/mouse s.c. (protein, UniProt O54908 32-272, looked up)
Dickkopf-related protein 1: TLNSVLINSNAIKNLPPPLGGAGGQPGSAVSVAPGVLYEGGNKYQTLDNYQPYPCAEDEECGSDEYCSSPSRGAAGVGGVQICLACRKRRKRCMRHAMCCPGNYCKNGICMPSDHSHFPRGEIEESIIENLGNDHNAAAGDGYPRRTTLTSKIYHTKGQEGSVCLRSSDCAAGLCCARHFWSKICKPVLKEGQVCTKHKRKGSHGLEIFQRCYCGEGLACRIQKDHHQASNSSRLHTCQRH
protection against murine MM challenge [7]: can Protect Murine MM Challenge
